According to the Human Domainome abundance scans (Beltran et al. 2025):
± gives the uncertainty stated by the source.

test: abundance fitness (aPCA) (normalised: wild type 0, dead -1); higher = more abundant; growth selection in yeast, the domain comes from the species named; settings: Homo sapiens

**Q.** Which abundance fitness does the source give for “Transcriptional activator Myb V193W, P10242” here?
**A.** -0.075 ± 0.068

**Q.** Which abundance fitness does the source give for “Transcriptional activator Myb V193Y, P10242” here?
**A.** -0.117 ± 0.23

**Q.** Which abundance fitness does the source give for “Transcriptional activator Myb W147A, P10242” here?
**A.** -0.681 ± 0.043

**Q.** For “Transcriptional activator Myb W147C, P10242”, which abundance fitness is on record?
**A.** -0.638 ± 0.042

**Q.** For “Transcriptional activator Myb W147D, P10242”, which abundance fitness is on record?
**A.** -0.699 ± 0.052

**Q.** For “Transcriptional activator Myb W147E, P10242”, which abundance fitness is on record?
**A.** -0.563 ± 0.058

**Q.** For “Transcriptional activator Myb W147F, P10242”, which abundance fitness is on record?
**A.** 0.081 ± 0.038

**Q.** For “Transcriptional activator Myb W147G, P10242”, which abundance fitness is on record?
**A.** -0.699 ± 0.036

**Q.** For “Transcriptional activator Myb W147I, P10242”, which abundance fitness is on record?
**A.** -0.406 ± 0.043

**Q.** For “Transcriptional activator Myb W147K, P10242”, which abundance fitness is on record?
**A.** -0.674 ± 0.06

**Q.** For “Transcriptional activator Myb W147L, P10242”, which abundance fitness is on record?
**A.** -0.434 ± 0.035

**Q.** For “Transcriptional activator Myb W147M, P10242”, which abundance fitness is on record?
**A.** -0.274 ± 0.048

**Q.** With “Transcriptional activator Myb W147N, P10242” as the substance, how does the abundance fitness read?
**A.** -0.65 ± 0.042

**Q.** For “Transcriptional activator Myb W147P, P10242”, which abundance fitness is on record?
**A.** -0.532 ± 0.052

**Q.** With “Transcriptional activator Myb W147Q, P10242” as the substance, how does the abundance fitness read?
**A.** -0.593 ± 0.055

**Q.** Which abundance fitness does the source give for “Transcriptional activator Myb W147R, P10242” here?
**A.** -0.824 ± 0.039

**Q.** With “Transcriptional activator Myb W147S, P10242” as the substance, how does the abundance fitness read?
**A.** -0.63 ± 0.036

**Q.** With “Transcriptional activator Myb W147T, P10242” as the substance, how does the abundance fitness read?
**A.** -0.542 ± 0.044

**Q.** With “Transcriptional activator Myb W147V, P10242” as the substance, how does the abundance fitness read?
**A.** -0.65 ± 0.036

**Q.** Which abundance fitness does the source give for “Transcriptional activator Myb W147Y, P10242” here?
**A.** -0.22 ± 0.045

**Q.** With “Transcriptional activator Myb W166A, P10242” as the substance, how does the abundance fitness read?
**A.** -0.467 ± 0.097

**Q.** Which abundance fitness does the source give for “Transcriptional activator Myb W166C, P10242” here?
**A.** -0.566 ± 0.093

**Q.** For “Transcriptional activator Myb W166D, P10242”, which abundance fitness is on record?
**A.** -0.687 ± 0.15

**Q.** With “Transcriptional activator Myb W166F, P10242” as the substance, how does the abundance fitness read?
**A.** -0.474 ± 0.14

**Q.** With “Transcriptional activator Myb W166G, P10242” as the substance, how does the abundance fitness read?
**A.** -0.543 ± 0.056

**Q.** For “Transcriptional activator Myb W166H, P10242”, which abundance fitness is on record?
**A.** -0.455 ± 0.17

**Q.** Which abundance fitness does the source give for “Transcriptional activator Myb W166I, P10242” here?
**A.** -0.834 ± 0.17

**Q.** For “Transcriptional activator Myb W166K, P10242”, which abundance fitness is on record?
**A.** -0.786 ± 0.2

**Q.** Which abundance fitness does the source give for “Transcriptional activator Myb W166L, P10242” here?
**A.** -0.986 ± 0.14

**Q.** Which abundance fitness does the source give for “Transcriptional activator Myb W166M, P10242” here?
**A.** -0.708 ± 0.15

**Q.** Which abundance fitness does the source give for “Transcriptional activator Myb W166N, P10242” here?
**A.** -0.349 ± 0.2

**Q.** For “Transcriptional activator Myb W166P, P10242”, which abundance fitness is on record?
**A.** -0.359 ± 0.15

**Q.** For “Transcriptional activator Myb W166Q, P10242”, which abundance fitness is on record?
**A.** -0.708 ± 0.1

**Q.** With “Transcriptional activator Myb W166R, P10242” as the substance, how does the abundance fitness read?
**A.** -0.761 ± 0.062

**Q.** With “Transcriptional activator Myb W166S, P10242” as the substance, how does the abundance fitness read?
**A.** -0.615 ± 0.091

**Q.** Which abundance fitness does the source give for “Transcriptional activator Myb W166T, P10242” here?
**A.** -0.63 ± 0.11

**Q.** For “Transcriptional activator Myb W166V, P10242”, which abundance fitness is on record?
**A.** -0.615 ± 0.075

**Q.** With “Transcriptional activator Myb W166Y, P10242” as the substance, how does the abundance fitness read?
**A.** -0.377 ± 0.14

**Q.** Which abundance fitness does the source give for “Transcriptional activator Myb W185A, P10242” here?
**A.** -0.736 ± 0.071

**Q.** For “Transcriptional activator Myb W185C, P10242”, which abundance fitness is on record?
**A.** -0.755 ± 0.12

**Q.** For “Transcriptional activator Myb W185D, P10242”, which abundance fitness is on record?
**A.** -0.658 ± 0.17

**Q.** Which abundance fitness does the source give for “Transcriptional activator Myb W185E, P10242” here?
**A.** -0.614 ± 0.068

**Q.** For “Transcriptional activator Myb W185F, P10242”, which abundance fitness is on record?
**A.** -0.037 ± 0.075
